Publication PMC2760636 (The Journal of urology, 2009)

Tests used:
[1] = test system: men with chronic prostatitis/chronic pelvic pain syndrome; conditions: CP/CPPS; cited from earlier work
HLA-DR DRB1*0301 (human) = experiment: radioligand binding
HLA-DR DRB1*0401 (human) = experiment: radioligand binding
HLA-DR DRB1*0404 (human) = experiment: radioligand binding
HLA-DR DRB1*0405 (human) = experiment: radioligand binding
HLA-DR DRB1*0901 (human) = experiment: radioligand binding
HLA-DR DRB1*1101 (human) = experiment: radioligand binding
HLA-DR DRB1*1302 (human) = experiment: radioligand binding
HLA-DR DRB1*1501 (human) = experiment: radioligand binding
HLA-DR DRB4*0101 (human) = experiment: radioligand binding
HLA-DR DRB5*0101 (human) = experiment: radioligand binding
CD4 lymphocytes = conditions: CP/CPPS; cited from earlier work
[2] = test system: CD4 and CD8 T cells from men with GP; conditions: men with granulomatous prostatitis; cited from earlier work
HLA-DR DRB1*0101 (human) = experiment: radioligand binding
HLA-DR DRB1*0701 (human) = experiment: radioligand binding
HLA-DR DRB1*0802 (human) = experiment: radioligand binding

IC50 (HLA-DR DRB1*0301 (human)) [nM] | IC50 (HLA-DR DRB1*0401 (human)) [nM] | IC50 (HLA-DR DRB1*0404 (human)) [nM] | IC50 (HLA-DR DRB1*0405 (human)) [nM] | IC50 (HLA-DR DRB1*0901 (human)) [nM] | IC50 (HLA-DR DRB1*1101 (human)) [nM] | IC50 (HLA-DR DRB1*1302 (human)) [nM] | IC50 (HLA-DR DRB1*1501 (human)) [nM] | IC50 (HLA-DR DRB4*0101 (human)) [nM] | IC50 (HLA-DR DRB5*0101 (human)) [nM] | IC50 (HLA-DR DRB1*0101 (human)) [nM] | IC50 (HLA-DR DRB1*0701 (human)) [nM] | IC50 (HLA-DR DRB1*0802 (human)) [nM] | Molecule | improvement of symptoms versus placebo (in words) [1] | recognition by CD4 lymphocytes (in words) (CD4 lymphocytes) | recognition by CD4 and CD8 T cells in GP (in words) [2]
 |  |  |  |  |  |  |  |  |  |  |  |  | O=C(O)c1cn(C2CC2)c2cc(N3CCNCC3)c(F)cc2c1=O [ciprofloxacin] | no more effective than placebo at improving symptoms |  | 
961 | 117 | 219 | 719 | > 20000 | > 20000 | 997 | 351 | 880 | > 20000 |  |  |  | PSA_(171-190) (peptide) |  |  | 
 |  |  |  |  |  |  |  |  |  |  |  |  | PSA: prostate specific antigen, normal self prostatic protein |  | can be recognized by CD4 lymphocytes | CD4 and CD8 T cells from men with GP can recognize PSA
> 20000 | 93 | 3.3 | 67 | 786 |  | > 20000 | 25 |  |  | 108 | 428 | 646 | PSA_(221-240) (peptide) |  |  | 
> 20000 | 296 | 374 | 211 | 93 | 28 | > 20000 | 4 |  | 24 | 25 | 132 |  | KSEEFQKRLHPYKDFIATLG [PAP_(173-192)] |  |  | 
> 20000 | 39 | 28 | 164 |  | 964 | 339 | 1.5 | 82 |  | 25 |  |  | NPILLWQPIPVHTVPLSEDQ [PAP_(133-152)] |  |  | 
